Among the data in patent US20140286859A1 (published 2014) are koff values, retold here.

“And” between values parts separate entries of the source, which are not always exact repeats. Equal values may be shown once.

This experiment addresses recombinant soluble PSMA (rsPSMA) (human, UniProt Q04609 44-750).

Sequence of recombinant soluble PSMA (rsPSMA) (Q04609 44-750): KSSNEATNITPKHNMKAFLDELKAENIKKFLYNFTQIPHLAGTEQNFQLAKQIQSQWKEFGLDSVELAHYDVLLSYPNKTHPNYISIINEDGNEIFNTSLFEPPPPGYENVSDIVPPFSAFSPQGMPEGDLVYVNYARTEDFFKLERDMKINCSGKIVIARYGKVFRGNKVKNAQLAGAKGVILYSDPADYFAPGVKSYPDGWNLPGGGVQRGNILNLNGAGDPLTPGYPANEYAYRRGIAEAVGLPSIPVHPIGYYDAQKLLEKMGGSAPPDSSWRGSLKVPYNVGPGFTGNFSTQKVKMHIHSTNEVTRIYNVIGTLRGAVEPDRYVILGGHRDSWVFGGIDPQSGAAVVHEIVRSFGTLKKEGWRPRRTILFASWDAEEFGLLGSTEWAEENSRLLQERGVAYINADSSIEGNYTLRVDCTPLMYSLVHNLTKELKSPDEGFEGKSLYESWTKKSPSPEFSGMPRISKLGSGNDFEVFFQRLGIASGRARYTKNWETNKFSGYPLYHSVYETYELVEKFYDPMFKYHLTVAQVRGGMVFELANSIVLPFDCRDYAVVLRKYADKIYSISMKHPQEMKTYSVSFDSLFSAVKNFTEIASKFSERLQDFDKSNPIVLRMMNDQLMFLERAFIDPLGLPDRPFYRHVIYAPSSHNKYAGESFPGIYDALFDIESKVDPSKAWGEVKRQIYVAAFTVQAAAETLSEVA

B1: PSMA 10.3 (antibody, V domains shown)
VH: QEQLVESGGGVVQPGRSLRLSCAASGFTFSTYGMHWVRQAPGKGLEWVAVTWHDGSNKYYADSVKGRFTISRDNSKNTLYLQMNSLRAEDTAVYYCARGGVGATYYYYYGMDVWGQGTTVTVSS
VL: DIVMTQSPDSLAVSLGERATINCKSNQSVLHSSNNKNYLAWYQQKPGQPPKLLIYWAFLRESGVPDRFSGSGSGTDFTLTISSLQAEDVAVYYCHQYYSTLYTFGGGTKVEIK
For B1, the koff was 6.32e-05 s⁻¹ and 6.43e-05 s⁻¹.
